The target in the assay is hepatitis A virus (HAV) particles (hepatitis A virus). The assay can be described thus: cell-based or functional assay.

In turn, D1muc-Fc fusion protein (IgVmuc-hIg) registered an HAV infectivity (neutralization) of 2 logs.

The values are drawn from patent US20030124114A1.
